# In PMC7094300 (Febs Letters, 2006):
# B1: SARS CoV main proteinase (enzyme)
# chain: SGFRKMAFPSGKVEGCMVQVTCGTTTLNGLWLDDTVYCPRHVICTAEDMLNPNYEDLLIRKSNHSFLVQAGNVQLRVIGHSMQNCLLRLKVDTSNPKTPKYKFVRIQPGQTFSVLACYNGSPSGVYQCAMRPNHTIKGSFLNGSCGSVGFNIDYDCVSFCYMHHMELPTGVHAGTDLEGKFYGPFVDRQTAQAAGTDTTITLNVLAWLYAAVINGDRWFLNRFTTTLNDFNLVAMKYNYEPLTQDHVDILGPLSAQTGIAVLDMCAALKELLQNGMNGRTILGSTILEDEFTPFDVVRQCSGVTFQ
# Target: the molecule itself
# Assay: small-angle X-ray scattering + cross-linking + other: enzyme kinetics
protein,measurement,value
B1,stoichiometry N,2
